# Assay results taken from patent US20260209293A1 (Novo Nordisk, published 2026).
# *1 amine or outer side, *2 acyl side, *3 side chain or, on linkers, in order; H or OH if unused. The star is where a group is joined. C20 diacid = O=C(O)CCCCCCCCCCCCCCCCCCC(=O)*; C18 diacid = O=C(O)CCCCCCCCCCCCCCCCC(=O)*; γGlu = O=C(O)[C@H](CCC(=O)[*:2])N[*:1]
# T1: human amylin-3(a) receptor (human, UniProt P30988 25-474; O60896 24-148)
# T1 sequence (looked up) 1: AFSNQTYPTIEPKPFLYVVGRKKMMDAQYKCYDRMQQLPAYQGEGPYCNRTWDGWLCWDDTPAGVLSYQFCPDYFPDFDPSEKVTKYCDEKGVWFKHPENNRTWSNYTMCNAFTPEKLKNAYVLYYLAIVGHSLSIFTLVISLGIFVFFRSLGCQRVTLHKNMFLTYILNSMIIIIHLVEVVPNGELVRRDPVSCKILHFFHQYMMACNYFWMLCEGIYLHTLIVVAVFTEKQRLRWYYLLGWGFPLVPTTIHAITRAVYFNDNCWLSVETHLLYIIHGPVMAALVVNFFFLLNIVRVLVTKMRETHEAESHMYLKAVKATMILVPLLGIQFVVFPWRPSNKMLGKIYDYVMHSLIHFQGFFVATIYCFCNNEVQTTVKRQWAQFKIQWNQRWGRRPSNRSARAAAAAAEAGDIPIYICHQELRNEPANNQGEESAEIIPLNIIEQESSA
# T1 sequence (looked up) 2: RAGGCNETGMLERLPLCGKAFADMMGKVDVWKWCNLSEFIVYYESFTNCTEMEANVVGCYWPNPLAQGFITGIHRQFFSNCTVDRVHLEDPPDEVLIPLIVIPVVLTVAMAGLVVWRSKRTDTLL
# T2: human calcitonin receptor (a) (human, UniProt P30988 25-474)
# T2 sequence (looked up): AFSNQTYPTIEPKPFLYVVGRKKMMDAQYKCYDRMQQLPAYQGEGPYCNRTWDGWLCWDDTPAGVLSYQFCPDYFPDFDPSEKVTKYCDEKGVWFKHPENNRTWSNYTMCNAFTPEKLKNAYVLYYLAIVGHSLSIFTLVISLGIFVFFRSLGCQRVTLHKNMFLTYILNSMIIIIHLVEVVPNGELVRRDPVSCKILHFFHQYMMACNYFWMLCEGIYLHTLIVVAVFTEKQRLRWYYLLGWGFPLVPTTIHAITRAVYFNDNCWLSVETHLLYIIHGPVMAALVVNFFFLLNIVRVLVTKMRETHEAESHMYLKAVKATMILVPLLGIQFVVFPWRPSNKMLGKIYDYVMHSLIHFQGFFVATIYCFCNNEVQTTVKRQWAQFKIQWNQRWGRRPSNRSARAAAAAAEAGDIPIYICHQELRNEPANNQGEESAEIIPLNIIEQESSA
# Key:
# [1] = target: T1, human amylin-3(a) receptor; assay: cell-based or functional assay
# [2] = target: T2, human calcitonin receptor (a); assay: cell-based or functional assay
Binder,"hAmyR3 potency, EC50 (pM); CRE-luciferase reporter in BHK cells [1] [pM]","hCalcR potency, EC50 (pM); CRE-luciferase reporter in BHK cells [2] [pM]"
{C18 diacid-γGlu}-ASHLSTAQTQRLAEFLHHSSDPFGAIPSSTDVGPNTP-NH2 (SMILES CC[C@H](C)[C@H](NC(=O)[C@H](C)NC(=O)CNC(=O)[C@H](Cc1ccccc1)NC(=O)[C@@H]1CCCN1C(=O)[C@H](CC(=O)O)NC(=O)[C@H](CO)NC(=O)[C@H](CO)NC(=O)[C@H](Cc1c[nH]cn1)NC(=O)[C@H](Cc1c[nH]cn1)NC(=O)[C@H](CC(C)C)NC(=O)[C@H](Cc1ccccc1)NC(=O)[C@H](CCC(=O)O)NC(=O)[C@H](C)NC(=O)[C@H](CC(C)C)NC(=O)[C@H](CCCNC(=N)N)NC(=O)[C@H](CCC(N)=O)NC(=O)[C@@H](NC(=O)[C@H](CCC(N)=O)NC(=O)[C@H](C)NC(=O)[C@@H](NC(=O)[C@H](CO)NC(=O)[C@H](CC(C)C)NC(=O)[C@H](Cc1c[nH]cn1)NC(=O)[C@H](CO)NC(=O)[C@H](C)NC(=O)CC[C@H](NC(=O)CCCCCCCCCCCCCCCCC(=O)O)C(=O)O)[C@@H](C)O)[C@@H](C)O)C(=O)N1CCC[C@H]1C(=O)N[C@@H](CO)C(=O)N[C@@H](CO)C(=O)N[C@H](C(=O)N[C@@H](CC(=O)O)C(=O)N[C@H](C(=O)NCC(=O)N1CCC[C@H]1C(=O)N[C@@H](CC(N)=O)C(=O)N[C@H](C(=O)N1CCC[C@H]1C(N)=O)[C@@H](C)O)C(C)C)[C@@H](C)O),1.31,2.19
{C20 diacid-γGlu}-ASHLSTAQTQRLAEFLHHFGPILPPTDVGSETP-NH2 (SMILES CC[C@H](C)[C@H](NC(=O)[C@@H]1CCCN1C(=O)CNC(=O)[C@H](Cc1ccccc1)NC(=O)[C@H](Cc1c[nH]cn1)NC(=O)[C@H](Cc1c[nH]cn1)NC(=O)[C@H](CC(C)C)NC(=O)[C@H](Cc1ccccc1)NC(=O)[C@H](CCC(=O)O)NC(=O)[C@H](C)NC(=O)[C@H](CC(C)C)NC(=O)[C@H](CCCNC(=N)N)NC(=O)[C@H](CCC(N)=O)NC(=O)[C@@H](NC(=O)[C@H](CCC(N)=O)NC(=O)[C@H](C)NC(=O)[C@@H](NC(=O)[C@H](CO)NC(=O)[C@H](CC(C)C)NC(=O)[C@H](Cc1c[nH]cn1)NC(=O)[C@H](CO)NC(=O)[C@H](C)NC(=O)CC[C@H](NC(=O)CCCCCCCCCCCCCCCCCCC(=O)O)C(=O)O)[C@@H](C)O)[C@@H](C)O)C(=O)N[C@@H](CC(C)C)C(=O)N1CCC[C@H]1C(=O)N1CCC[C@H]1C(=O)N[C@H](C(=O)N[C@@H](CC(=O)O)C(=O)N[C@H](C(=O)NCC(=O)N[C@@H](CO)C(=O)N[C@@H](CCC(=O)O)C(=O)N[C@H](C(=O)N1CCC[C@H]1C(N)=O)[C@@H](C)O)C(C)C)[C@@H](C)O),1.12,1.44
